Here are results for 17 sequences from the DeepSol protein solubility set.

The series in a line: soluble on expression in E. coli; label from the status in PepcDB or PDB records.
As for “MSVINKIVARRTQLSQSGRLVGDWIVENAEKAAQLTSQELAAQVKVSQSSIVKFTQRIGFKGYSEFKLALNEEIGRKHAMQSTPLHSDILADDPIAVISQKLVKAKTDAMFQTTNALSYEACHQAVKWLSEARRVQVVGIGGSALTAKDLSFKLLKLGITALSEQDSHVQIAVARTLSSEDVQIAISYSGERKEILVAAEAAKEQGAKVIALSAPGRSRLRGIADITFDTIANETEHRSSSIASRTAQNVITDLLFIILVQQRDESARQLISDISTDIKQILT”, the “soluble on expression in E. coli” value is reported as “not soluble”.
With “MNSQELLAIAVDAIDNKKGEDTISLEMKGISDMTDYFVVTHGNNERQVQAIARAVKEVANEQNIEVKRMEGYNEARWILIDLADVVVHVFHKDERNYYNIEKLYQDAPLESYSQVAYLEHHHHHH”, the “soluble on expression in E. coli” value was “not soluble”.
For the sequence “SKHSNKPYDSFQDELEDYIKVQKARGLEPKTCFRRMRGEYLESCGYREEFDSRPRYRMFDQRLPSGTNHSYPRSCSSSQTEDRVPQWLPAHDKIRLNSLSYCQFTRDGFSEKPVPLNLSQQEYNCGSYSVESVVHKRLCSEHSTIDPQVSHRQMHQKRKKHVEEGREKQEERPKHERKRSSEEMDLNKHRSIQRKKTKAETETVQDGTEKLKNRKEKKTRDVSSKKEDRKRRKEKKEQGEERTEEEMLWDQSILGF”, the “soluble on expression in E. coli” value was “soluble”.
As to “GMWSYDKITDYLMNNLGEKRYKHSLGVMDTAVRLAGIYNEDTEKARIAGLVHDCAKKLPGEKIIEICTNEGYELGDEDIRNSYLLHGLAGRILAKKVIGIDDEDVLNAIEFHTTGRPNMSLLEKIIYIADYIEPGREFKGVDELRKAADEDLNKALLMSFDNTIKFVIDKGGFLHHNTIEARNYLISRKG”, the “soluble on expression in E. coli” value was “soluble”.
With “MKLMFASDIHGSLPATERVLERFAQSGARWLVILGDVLNHGPRNALPEGYAPAQVAERLNAVATQIIAVRGNCDSEVDQMLLHFPITAPWQQILTQERRLFLTHGHLFGPTNLPALHTGDVLVYGHTHLPVAQQQEGLYHFNPGSVSIPKGGYAASYGILDDNVLSVIALNDQSIIAQVAINS”, the “soluble on expression in E. coli” value is given as “not soluble”.
As to “MNPEKNLYPYTQESSLEQALNFEIAQVWHTRSEGTYRSFDKTHIYWCSLKHPEHQKAVVIVNGRIESAWKYQELCYDLFRQGFDVYTYDHRGQGRSERLTEDRQIGHVHEFQDYVTDLKALVEHFDLGHYQERFLLAHSMGGAIATRYIQTTPAHPFSALALSAPMFGVNMPWYLRPWALLITQIMAAVTLKPSYAPGYGPYHAKPFHLNLLTHSETRYQLFRELYEAHPELQIGGPSHRWVWQSLMATKQCLQLTRQIKIPMLILQAGEEAIVCNRAQIRLFKKLSRTQKRAALCRIAGARHELLFEQDAYRNQTLDHILRFFADSTIDHKRQHHRP”, the “soluble on expression in E. coli” value is on record as “not soluble”.
Regarding “MGSDKIHHHHHHMVTLVRQVEIQPYQPKYAQAVSELFHLCVHNIEHERYSQAQLNAWSKAPRSAKHWHLRLSRSQAWIILVTSTESLSKICVGFINVETDYYHRGYIDSFYIHPDWQRQGVGGRVYCELEQWARGQGYASLSVDASYLSKGLFTQLGFVQIQRNYQQKLGQVLTSFYMTKKL”, the “soluble on expression in E. coli” value is “not soluble”.
For the sequence “MAHHHHHHMHFSPLVFHIHFTRSFSLFFRFCMQLATREGWWEEGGEKEGVFEGAIEEKTVMSFFFDEDSGDEPATKRHCTEQQQRAQGRPHGGFFNGNGEKDEDEDERPVLARAGSDRVGLRLLQGMQKPTSSSSSVLLSGKEKMRVVEAYVPLSVGGFMESSAETAVDNLSQIKPGNVMCLRSPASSASQASTGMNFVRETDLTEEERRYGKRLSSNMTQELFEVGRVDRDTGMLEAIFLDGTRRNLKAYAVRPAGFVEKELFRQWKRDPNSRPVRTVYAAPQDANASPSLSSTTQTTRTTAVDSAKRKNNTAAVELMPWWVSPQLIVRVVEKSAGDLFGKKFVVKSLSRKEGKIRLAPWQRSAGNGESAENSPVDIVGCEALETIVPKVGEQGIIVLGNMRGELVKVMERHRDVNGELASLKVCSTLTGNEFTVGPHEVCQLACPRP”, the “soluble on expression in E. coli” value is “not soluble”.
On to “MVFGFTKRDRRVPDLSRYDYYYQNHEDYNKSPQLSAAAASAASAASPDRTNYSRSHSLVSHAPSIPRQRSSVKSPGRRLSTSSAAPPTSRAAAKQYSQKTYSLRSQRSGEYHLHPPGYTTNGSRMNSMTSGANVRRNYGKNKSTAGNNNDSRANSITVKTTQVTDPSGRTQSITKKTIRKINGYEYVETTTTTKNLVPLGDSQRHFDEFSENYMLQDDDILEEQASDNIHDIIEENETDNEKPYSPVSESHLQDDSELNVEKPDFPLGSYFHHKYSTDVMPLEEESSLSNFSDALDYIPPTHQTSSKYIHNKRKQASTTRRKKRPPAVKNAEAEAKKPLTEAEMYLKALEVAKRNVYHTDAASDNASAPLGSNKSRKSRMGQKMTLRSSSDSPTATANLVKSNVEVQPKRFTSSFFSRNTKSAPHEVHNHSVSTHFKSNKAVDPVPEPKSANTGLTDKEMYDQALKIAQARYYNSHGIQPEAVDNSTTAAKPRQVGVSHLGSTGSIPPNEQHYLGDSEIPVQSEVHEYEPIPLQKTKTTGSSKNKFKTMFDKVLQFSQENYGYQHKKEQGEQTPVTRNAEESFPAASISEGVTTAKPSSNEGVMTNPVVTDSPSPLQQQIDSTTASSNGQSQGNVPTSAVASTTRTRSPELQDNLKSSSSLLQDQTPQRQEDATDPTTSSTNELSAAEPTMVTSTHATKTIQAQTQDPPTKHKKSSFFTKLFKKKSSR”, for which the “soluble on expression in E. coli” value was “soluble”.
As to “MNEFETLLNSVEDVKVRDVVKGEILSVENGQATVAIVGTGVEGVLTLREITNDKDADINTFVKPGDVLDLLVIKQIVGKEAEGANVYLLSLKRLEARKAWTQLEGKEGEIVTVKVTKDVKGGLSVDYNGVRGFIPASMIDTYFVKDTKKFVGEEIEAKIIEVNASENRFILSRRAVVEAEAIEMRKEAFAQLQEGDIVEGTVSRVTNFGAFVDLGGIDGLVHVSELSHSRIKRPSDAVKPGDVVNVKILKLDPEAGRLSLSLKATQPGPWEQVEEKAPVGSTVEGTVKRLTDFGAFVELYPGVEGLVHVSQISWERVENPKDVLKVGQVVNVKVLDVKPAEERISLSIKALEEAPARPARNNDNDGEKRDRKPRAPRKAAKPSYDLPETQEGFSLADFLGEDFDINDLLEHHHHHH”, the “soluble on expression in E. coli” value is reported as “soluble”.
As to “ATQFTASILSLYNSEQMLQKTDPMSVISSAMVAATLDLPIDKNLGYAWIVPYGGKAQFQLGYKGYIQLALRTGQYKSINCIPIHEGELQKWNPLTEEIEIDFEKRESDAVIGYAAYFELINGFRKTVYWTKAQVEKHKKKFSKSDFGWKNDWDAMALKTVLKAVLSKWGILSVEMQKAVIEEDETRERIDITNEADSSEIIDSE”, the “soluble on expression in E. coli” value is recorded as “not soluble”.
For the sequence “MGISRDSWHKRYKTGATQPVPHKKRKFELGRPAANTKIGAHRVRLVRTRGGNEKYRALRLDSGNFSWASEQTTRKTRIVDTMYNATNNELVRTKTLVKGAIISVDAAPFRQWYEAHYALPLARKKNAKLSEEDNAILNKKRSHHTMKKYTERQKTAAVDALLIEQFNTGRLLARISSSPGQVGQANGYILEGKELDFYLRKIRAKKAK”, the “soluble on expression in E. coli” value was “not soluble”.
In the case of “NENNTVVAETKTSTASETSEPKQVISSKQQLASLYLQAKQSLFKQRALSATMYGLSQKDIGQVISSDMEFYSPENEKQLRAELLSISNTIAGIKLDDADITTKNNQQVMAGLTRYFAGEPNFNIGYIDTWMGLSPFIVNQINGPLIDIPRVMQNDQPITTEKEALDYIVRLGQFDKLAATIIEKQTADAAQNWLPSKVTLQGAIKYLKGFTSGSAEQHPFVNVFREKIEKVDSLTTEQKQSLITQVIAKVSQVVYPAYQSVEKASEQLLSEARSESGIWAQPKGSVYYQDAIKQLGDSELSPTQIHQIGLDEVARISGVMNEILLAQGYTKGTVGERMVALNEEPRFLYEDSIAGREELLSDINGYITEVTAKMAPVFRTTPSYQVEVKSFPVEVQDGAPGGQYTSPAVDGSKPGIYWINLRDMKANPKFGLKTLTYHEANPGHHWQIALNLDQAELPFLRRIAPYNAYTEGWALYSEQVAYELGMYENDPFGDLGRLQAELFRAVRLVVDTGLHDKRWTREQAISYMSEQTGTAESDVVAEIERYMAWPGQALGYKLGMLKILSLREQAKARLGDKFDLAEFHDVVLLNGAVPMAVLSRNVNHWLDNK”, the “soluble on expression in E. coli” value is reported as “soluble”.
For “SLGRQVYNFNPGWRFFKGDIRGAEAVNFDDRSWEVVSTPHTVELMPAEGSGCRNYQGPAWYRKHFVVPTATKGQRVLLHFEAAMGKQVLYLNGKRVQEHLGGYLPFTLDLTANGVQAGDSCLLAVYTDNSNDKSYPPGKPQYTLDFAYHGGIYRDVWMIAKSPVAITDAIDSRTVGGGGVFVHFDKISEKSAQVYVETEIQNDNTRSESVTIETTLTDAEGNVIKRTSGKLSLNSGEKKSIRQQMEVRNPKLWSPDAPYLYRVQSRIKKGNRSIDGGTTRIGIRLAEFRGKEGFWLNGKPFGQLVGANRHQDFAYVGNALPNSQQWRDAKRLRDAGCTIIRVAHYPQDPSFMDACDELGLFVIVATPGWQYWNKDPKFGELVHQNTREMIRRDRNHPSVLMWEPILNETRYPLDFALKALEITKEEYPYPGRPIAAADVHSAGVKEHYDVVYGWPGDDEKEDKPEQCIFTREFGENVDDWYAHNNNNRASRSWGERPLLIQALSLAKSYDEMYRTTGQFIGGTQWHPFDHQRGYHPDPYWGGIYDAFRQKKYAYEMFRSQSPASLQHPLAECGPMIFLAHEMSQFSDKDVVVFSNCDSIRLSIYDGTKTWTKPVVHAKGHMPNAPVIFENVWDFWEARGYSYTQKNWQKVNMVAEGIIDGKVVCTQKKMPSRRSTKLRLYADTQKVNLVADGSDFIVVVAEVTDDSGNVRRLAKENIVFTVEGEGEIIGDARIGANPRAVEFGSAPLLIRSTRKAGKIKVKAHVQFEGTQAPTAAEMEFESVPAELPFCYDEKEG”, the “soluble on expression in E. coli” value is “not soluble”.
Regarding “STRFLEKRHKKKKATNKERILSYKPIHAIEQENSFRSSRCSNQTVEVSAVEDSRSALVGFFESNEPSESVTLKGKRERQLLASKTLISQLKEENCRLKERLNEVKDQLELKEKIALVQQENNDLEAEVLEWKAKFYESESEKERILASRSRPKDGYEIVQESLAQQPGTTSFYDYKFRQLVHKLTRMNAIHSKHNDKEYHKCDIVNESKDRSITFELFIDEEQEEIEYVPVQLNGVSQKLPSYLQDNISFDVQNAPIFFTKIMHSLFSK”, the “soluble on expression in E. coli” value is “soluble”.
Turning to “KDLKIVMLTDIHLGKNLHENFLDKLITKVNLQSPDMVVIVGDLIDTNPKDLKNYISKLNDFNSTYGTFYALGNHEYYHGINEVLDLLRKHTNMKILVNQNLDLGFIDIAGLGDLAGLDRGLYAPDLARIKVDLNTSKASILLTHQPKTALLYDLSDFDLVLSGHTHGGQIFPFMFLV”, the “soluble on expression in E. coli” value is “not soluble”.
With “DQLYALFDAFFDEDLSQSPEQATSLGLDTGKHADARSRLSDRSTAAWLRDRAEPAERIARLKTIDRKALSGDDAINYDTALFNYEARQGTSRFDFGDGARPFVLTQFYGSYISTPSFLDGRHKIASAADADAYLGRMKAFATVLDQETQRAGADAAKGVIPADFIVDKAIAQLQQFRSLPVEKNVLVASAARRAKAYGDYDAKAAAILTGEIHPALDRQIAALQAMRAKAVHDAGIGRLKDGDAFYAALLKIYTTTNKTPEEVHRLGLEEGAEIQARMDEILKKRGLTQGTVGQRMARLNTMPGQVFANTDEGRAELLAYCTERLAKLQPLLPQWFGVMPKTPVVVRRVPAYTEAGSAGAYYERPALDGSRPGAVYINLRDTAERPRWSLATLMHHEGAPGHHFQLALVAESNLPKLRQNMGFSANTEGWALYAEQVAMEMGIYDDGDDLGLLGMYQARLFRASRCVVDTGIHAKGWSREKAIAYMIETGGDPEVRVSREVERYCANPGQACSYKVGHTVWAALRERTKQRLGSKFDIKRFHDTALLVGPAPLTVLEGVLDRWQ” the entry was “not soluble”.
